Reference: US20180051082A1

Key:
[1] = molecular target: human FcRn (human) (UniProt P55899); experiment: BIACORE-based assay, antibody bound to FcRn at pH 6.0, residual bound antibody after adjustment to pH 7.4
[2] = molecular target: cynomolgus FcRn (cynomolgus monkey) (UniProt Q8SPV9); experiment: as above
Sequence of cynomolgus FcRn (cynomolgus monkey) (Q8SPV9 24-297): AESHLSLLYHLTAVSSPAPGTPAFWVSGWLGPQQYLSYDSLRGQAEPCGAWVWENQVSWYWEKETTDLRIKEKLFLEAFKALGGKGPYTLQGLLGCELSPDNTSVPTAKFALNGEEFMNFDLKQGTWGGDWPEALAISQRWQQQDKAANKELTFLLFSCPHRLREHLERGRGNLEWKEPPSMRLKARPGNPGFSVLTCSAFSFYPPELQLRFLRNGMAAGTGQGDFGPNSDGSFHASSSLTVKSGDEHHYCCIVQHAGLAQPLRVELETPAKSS

% Residual Binding at pH 7.4 [1]: 2% | % Residual Binding at pH 7.4 [2]: 1.7%
Substance: human IgG1 version of BMS-936558, designated BMS (antibody)
